Substitutions are numbered along the chain they refer to. Like-named read-outs stand apart in the source and are kept apart here.
What was measured:
[1] = molecular target: T1, PDL1-His (Kyinno, Cat No.: KP-1022) (UniProt Q9NZQ7 19-238, limits assumed); assay: BLI (ForteBio Octet), PDL1-His as mobile phase
T1 construct: not shown: His tag

[2] = molecular target: T2, human PDL1 expressed on 293T-PDL1 cells (human, UniProt Q9NZQ7 19-290); assay: cell-based or functional assay
[3] = molecular target: T3, PDL1-hFc (Kyinno, Cat No.: KP-1009) (human, UniProt Q9NZQ7 19-238, limits assumed); assay: flow cytometry, blocking of PDL1 Fc fusion (taken as PDL1-hFc) binding to 293T-PD1 cells
T3 construct: bought; not shown: human Fc (hFc)
T3 sequence (Q9NZQ7 19-238 limits assumed): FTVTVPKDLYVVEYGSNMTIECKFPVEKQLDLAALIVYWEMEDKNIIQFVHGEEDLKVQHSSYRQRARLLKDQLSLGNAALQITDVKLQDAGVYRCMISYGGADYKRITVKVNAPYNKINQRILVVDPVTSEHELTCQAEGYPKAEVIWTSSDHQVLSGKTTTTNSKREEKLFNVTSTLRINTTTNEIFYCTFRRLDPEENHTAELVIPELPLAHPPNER

[4] = molecular target: T2, human PDL1 expressed on 293T-PDL1 cells; assay: flow cytometry on 293T-PDL1 cells
[5] = molecular target: T4, PDL1-mFc (fusion protein of the human PDL1 extracellular domain and mouse Fc; Kyinno, Cat No.: KP-1008) (human; mouse, UniProt Q9NZQ7 19-238); assay: flow cytometry, blocking of PDL1-mFc binding to 293T-PD1 cells
T4 construct: extracellular domain; bought; also called human PDL1-mFc; not shown: mouse Fc
T4 sequence (Q9NZQ7 19-238): as the sequence (Q9NZQ7 19-238 limits assumed) above

[6] = molecular target: T2, human PDL1 expressed on 293T-PDL1 cells; assay: cell-based or functional assay; remark: listed apart in the source
[7] = molecular target: T2, human PDL1 expressed on 293T-PDL1 cells; assay: flow cytometry on 293T-PDL1 cells; remark: listed apart in the source
[8] = molecular target: T5, EGFR-His (Kyinno, Cat No.: KP-1150) (UniProt P00533 25-645, limits assumed); assay: BLI (ForteBio Octet), EGFR-His as mobile phase
T5 construct: bought; not shown: His tag

[9] = molecular target: T6, human EGFR expressed on CT26-EGFR cells (human, UniProt P00533 25-1210); assay: flow cytometry on CT26-EGFR cells
T6 construct: whole, on cells; CT26 cells stably expressing human EGFR (Kyinno KC-1451); also called EGFR-expressing cells; 293T-NFAT-Luc2-EGFR cells

[10] = molecular target: T6, human EGFR expressed on CT26-EGFR cells; assay: cell-based or functional assay
[11] = molecular target: T7, EGFR-hFc (Kyinno, Cat No.: KP-1149) (UniProt P00533 25-645, limits assumed); assay: ELISA, blocking of EGFR Fc fusion (taken as EGFR-hFc) binding to coated EGF-His
T7 construct: bought; also called EGFR-Fc; not shown: human Fc (hFc)

[12] = molecular target: T8, PD1-hFc (fusion protein of the human PD1 extracellular domain and human IgG1-Fc) (human, UniProt Q15116 25-170); assay: flow cytometry, blocking of PD1 fusion protein binding to 293T-PDL1 cells (procedure of Example 8)
T8 construct: extracellular domain; also called human PD1-hFc; not shown: human IgG1-Fc, Genbank CAC20454.1
T8 sequence (Q15116 25-170): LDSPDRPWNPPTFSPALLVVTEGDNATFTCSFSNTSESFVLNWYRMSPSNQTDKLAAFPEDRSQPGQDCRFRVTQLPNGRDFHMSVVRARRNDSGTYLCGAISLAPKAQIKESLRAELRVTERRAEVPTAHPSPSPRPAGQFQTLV

[13] = molecular target: T9, LAG3-His (ACRO, Cat No.: LA3-H5222) (UniProt P18627 23-450); assay: BLI (ForteBio Octet), LAG3-His as mobile phase
T9 construct: bought protein; not shown: His tag
T9 sequence (looked up): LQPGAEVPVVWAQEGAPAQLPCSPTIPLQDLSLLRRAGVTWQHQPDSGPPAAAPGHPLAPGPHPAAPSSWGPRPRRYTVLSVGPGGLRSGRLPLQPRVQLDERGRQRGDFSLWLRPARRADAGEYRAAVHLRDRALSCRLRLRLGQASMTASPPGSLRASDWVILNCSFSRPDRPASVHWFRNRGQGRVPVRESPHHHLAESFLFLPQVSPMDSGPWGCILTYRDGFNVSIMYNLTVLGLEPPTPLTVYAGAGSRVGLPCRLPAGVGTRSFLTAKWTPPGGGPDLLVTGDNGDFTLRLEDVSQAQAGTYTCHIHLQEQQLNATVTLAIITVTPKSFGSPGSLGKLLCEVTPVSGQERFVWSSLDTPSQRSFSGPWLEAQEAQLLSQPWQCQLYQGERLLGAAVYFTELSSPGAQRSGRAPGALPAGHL

[14] = molecular target: T10, PD1-His (Kyinno, Cat No.: KP-1023) (UniProt Q15116 25-167, limits assumed); assay: BLI (ForteBio Octet), PD1-His as mobile phase
T10 construct: bought protein; not shown: His tag
T10 sequence (Q15116 25-167 limits assumed): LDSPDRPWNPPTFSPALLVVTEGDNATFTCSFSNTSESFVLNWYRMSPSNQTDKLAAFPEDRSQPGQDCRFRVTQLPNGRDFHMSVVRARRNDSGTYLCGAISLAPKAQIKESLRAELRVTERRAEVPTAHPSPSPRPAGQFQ

[15] = molecular target: T11, LAG3-hFc (fusion protein of the human LAG3 extracellular domain and human IgG1-Fc) (human, UniProt P18627 23-450); assay: flow cytometry, blocking of LAG3 fusion protein binding to Daudi cells (procedure of Example 5)
T11 construct: extracellular domain; not shown: human IgG1-Fc, Genbank CAC20454.1
T11 sequence (looked up): T9 sequence (looked up)

[16] = molecular target: T12, human PD1 expressed on 293T-PD1 cells (human, UniProt Q15116 25-288); assay: flow cytometry on 293T-PD1 cells
T12 construct: whole, on cells; 293T cells stably expressing human PD1 (Kyinno KC-0204); also called PD1-expressing cells; Jurkat NFAT-PD1-luc cells
T12 sequence (Q15116 25-288): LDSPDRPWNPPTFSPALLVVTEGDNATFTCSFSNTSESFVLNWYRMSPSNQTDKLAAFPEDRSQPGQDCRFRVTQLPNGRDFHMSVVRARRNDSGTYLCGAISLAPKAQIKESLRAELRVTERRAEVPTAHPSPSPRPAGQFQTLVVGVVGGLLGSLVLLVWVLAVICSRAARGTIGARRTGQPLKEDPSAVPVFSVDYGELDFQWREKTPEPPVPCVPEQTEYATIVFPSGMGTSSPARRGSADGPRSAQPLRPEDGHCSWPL

[17] = molecular target: T13, human LAG3 expressed on 293T-LAG3 cells (human, UniProt P18627 23-525); assay: flow cytometry on 293T-LAG3 cells
T13 construct: whole, on cells; 293T cells stably expressing human LAG3 (Kyinno KC-0214); also called LAG3-expressing cells
T13 sequence (looked up): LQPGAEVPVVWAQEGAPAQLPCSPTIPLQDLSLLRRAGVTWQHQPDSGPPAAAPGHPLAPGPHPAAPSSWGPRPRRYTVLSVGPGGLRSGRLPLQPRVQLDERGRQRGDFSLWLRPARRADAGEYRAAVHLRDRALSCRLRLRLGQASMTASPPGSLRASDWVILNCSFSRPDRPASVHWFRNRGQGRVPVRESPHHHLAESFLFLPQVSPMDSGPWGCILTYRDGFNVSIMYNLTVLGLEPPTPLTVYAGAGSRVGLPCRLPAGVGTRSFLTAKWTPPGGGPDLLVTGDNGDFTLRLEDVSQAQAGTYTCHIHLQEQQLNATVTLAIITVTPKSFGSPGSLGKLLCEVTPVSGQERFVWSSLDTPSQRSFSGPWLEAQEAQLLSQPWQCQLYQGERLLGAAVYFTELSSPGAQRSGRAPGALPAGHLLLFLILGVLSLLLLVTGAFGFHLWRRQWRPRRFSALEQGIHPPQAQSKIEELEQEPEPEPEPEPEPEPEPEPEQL

[18] = molecular target: T9, LAG3-His (ACRO, Cat No.: LA3-H5222); assay: BLI (ForteBio Octet), LAG3-His as mobile phase; remark: listed apart in the source
[19] = molecular target: T12, human PD1 expressed on 293T-PD1 cells; assay: flow cytometry on 293T-PD1 cells; remark: listed apart in the source
[20] = molecular target: T8, PD1-hFc (fusion protein of the human …); assay: flow cytometry, blocking of PD1 fusion protein binding to 293T-PDL1 cells (procedure of Example 8); remark: listed apart in the source
[21] = molecular target: T10, PD1-His (Kyinno, Cat No.: KP-1023); assay: BLI (ForteBio Octet), PD1-His as mobile phase; remark: listed apart in the source
[22] = molecular target: T13, human LAG3 expressed on 293T-LAG3 cells; assay: flow cytometry on 293T-LAG3 cells; remark: listed apart in the source
[23] = molecular target: T11, LAG3-hFc (fusion protein of the human …); assay: flow cytometry, blocking of LAG3 fusion protein binding to Daudi cells (procedure of Example 5); remark: listed apart in the source

T2 sequence (Q9NZQ7 19-290): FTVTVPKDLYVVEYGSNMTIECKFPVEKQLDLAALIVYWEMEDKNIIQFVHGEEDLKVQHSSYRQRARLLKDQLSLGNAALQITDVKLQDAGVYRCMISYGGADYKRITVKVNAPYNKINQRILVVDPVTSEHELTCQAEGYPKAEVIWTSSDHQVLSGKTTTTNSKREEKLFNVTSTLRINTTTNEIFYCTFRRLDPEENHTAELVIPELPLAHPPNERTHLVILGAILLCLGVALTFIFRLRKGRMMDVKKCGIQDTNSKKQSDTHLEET
T1 sequence (Q9NZQ7 19-238 limits assumed): as the sequence (Q9NZQ7 19-238 limits assumed) above

B1: anti-PDL1 murine antibody 58E3-2 (hybridoma cell line KD-22-0227 58E3-2) (antibody, V domains shown)
VH: QVQLKESGGGLVKPGGSLKLSCAASGFTFSDYGIHWVRQAPEKGLEWVAFISSGSSTIYYADTVKGRFTISRDNAKNTLFLQMTSLRSEDTAMYYCTRRDFYGSADAMDYWGQGTSVTVSS
VL: QIVLTQSPAIMSASPGEKVTMTCSASSSVSYMHWYQQKSGTSPKRWIYDTSKLASGVPARFSGSGSGTSYSLTISSMEAEDAATYYCQQWSSNPPYTFGSGTKLEIK
notes: murine antibody
B1 was tested, and the Kd [1] was 431 pM, the koff [1] was 0.000618 s⁻¹ and the kon [1] was 1.43e+06 M⁻¹ s⁻¹. For the same binder, the “IC50, luciferase reporter (Jurkat NFAT-PD1-luc + 293T OS8-hPDL1 cells)” value [2] was 1 µg/mL, the “Top (fold increase in activation), luciferase reporter” value [2] was 3.52 and the IC50 [3] was 0.986 µg/mL. The EC50 [4] was 0.245 µg/mL.

B2: KA-2016 H58E3-2V4-2-hIgG1 (antibody, V domains shown)
VH: QVQLVESGGGLVKPGGSLRLSCAASGFTFSDYGIHWIRQAPGKGLEWVAFISSGSSTIYYADAVKGRFTISRDNAKNSLYLQMNSLRAEDTAVYYCTRRDFYGSADAMDYWGQGTTVTVSS
VL: DIQLTQSPSTLSASVGDRVTITCSATSSIGYMHWYQQKPGTSPKRWIYDTSKLASGVPSRFSGSGSGTEYTLTISSLQPDDFATYYCQLWSSDPPYTFGQGTRLEIKR
notes: anti-PDL1 humanized antibody, human IgG1 / kappa
With B2 the IC50 [5] was 0.0229 µg/mL, the “IC50, luciferase reporter (procedure of Example 25)” value [6] was 81 pM and the EC50 [7] was 0.0419 µg/mL.

B3: anti-EGFR murine antibody 22A12-2 (hybridoma cell line KD-22-0198 22A12-2) (antibody, V domains shown)
VH: EVQLQQSGPELVKPGASVKISCKASGYTFTDYYMNWVKQSHGKSLEWIGDINPNDGGTSYNQKFKGKATLTVDKSSSTAYMELRSLTSEDSAVYYCAREILYYVTSFYFDYWGQGTTLTVSS
VL: B1 VL with S26T, S28G, K52R
notes: murine antibody
Binder B3 has a Kd [8] of 1150 pM, a koff [8] of 0.00111 s⁻¹ and a kon [8] of 965000 M⁻¹ s⁻¹. For the same binder, the EC50 [9] was 0.0242 µg/mL, the “IC50, luciferase reporter (293T-NFAT-Luc2-EGFR cells stimulated with EGF-His)” value [10] was 0.373 µg/mL and the IC50 [11] was 1.58 µg/mL.

B4: KA-1835 H28G27V4×H107D1210-hIgG4M (bispecific antibody)
heavy 1: QVQLVESGGGLVKPGGSLRLSCAASGFTFSDYGMHWIRQAPGKGLEWVAYISSGSYTIYYADTVRDRFTISRDSAKNSLYLQMNSLRAEDTAVYYCVRRGPGYFGSTALDYWGQGTTVTVSSASTKGPSVFPLAPCSRSTSESTAALGCLVKDYFPEPVTVSWNSGALTSGVHTFPAVLQSSGLYSLSSVVTVPSSSLGTKTYTCNVDHKPSNTKVDKRVESKYGPPCPPCPAPEFLGGPSVFLFPPKPKDTLMISRTPEVTCVVVDVSQEDPEVQFNWYVDGVEVHNAKTKPREEQFNSTYRVVSVLTVLHQDWLNGKEYKCKVSNKGLPSSIEKTISKAKGQPREPQVCTLPPSQEEMTKNQVSLSCAVKGFYPSDIAVEWESNGQPENNYKTTPPVLDSDGSFFLVSRLTVDKSRWQEGNVFSCSVMHEALHNHYTQKSLSLSLG
heavy 2: QVQLQESGPGLVKPSETLSLTCTVSGYSFTSGYYWNWIRQPPGKGLEWIGYVSYFGTANYNPALKNRVTISRDTSKNQFSLKLSSVTAADTAVYYCARGEEWDWSFDVWGQGTTVTVSSASTKGPSVFPLAPCSRSTSESTAALGCLVKDYFPEPVTVSWNSGALTSGVHTFPAVLQSSGLYSLSSVVTVPSSSLGTKTYTCNVDHKPSNTKVDKRVESKYGPPCPPCPAPEFLGGPSVFLFPPKPKDTLMISRTPEVTCVVVDVSQEDPEVQFNWYVDGVEVHNAKTKPREEQFNSTYRVVSVLTVLHQDWLNGKEYKCKVSNKGLPSSIEKTISKAKGQPREPQVYTLPPCQEEMTKNQVSLWCLVKGFYPSDIAVEWESNGQPENNYKTTPPVLDSDGSFFLYSRLTVDKSRWQEGNVFSCSVMHEALHNHYTQKSLSLSLG
light: DIQITQSPSSLSASVGDRVTITCSATSGVSYMHWYQQKPGKAPKRLIYDTSRLASGVPSRFSGSGSGTDYTLTISSLQPEDFATYYCQQWSSNPPYTFGQGTRLEIKRTVAAPSVFIFPPSDEQLKSGTASVVCLLNNFYPREAKVQWKVDNALQSGNSQESVTEQDSKDSTYSLSSTLTLSKADYEKHKVYACEVTHQGLSSPVTKSFNRGEC
notes: PD1×LAG3 bispecific; first heavy chain targets PD1 (hIgG4 Hole), second targets LAG3 (hIgG4 Knob); common light chain 1
B4 showed an IC50 [12] of 0.435 µg/mL, a Kd [13] of 168 pM and a koff [13] of 0.000195 s⁻¹. It also gave a kon [13] of 1.16e+06 M⁻¹ s⁻¹, a Kd [14] of 4730 pM and a koff [14] of 0.00105 s⁻¹. It also gave a kon [14] of 222000 M⁻¹ s⁻¹, an IC50 [15] of 0.879 µg/mL and an EC50 [16] of 0.651 µg/mL. For the same binder, the EC50 [17] was 0.228 µg/mL.

B5: KA-1793 H28G27V4×H107D1210-hIgG4M (bispecific antibody)
heavy 1: B4 heavy 1
heavy 2: B4 heavy 2
light: B4 light with T26S, G28S, R52K
notes: PD1×LAG3 bispecific; first heavy chain targets PD1 (hIgG4 Hole), second targets LAG3 (hIgG4 Knob); common light chain 2
B5 was tested, and the Kd [18] was 175 pM, the koff [18] was 0.000111 s⁻¹ and the kon [18] was 633000 M⁻¹ s⁻¹. For the same binder, the EC50 [19] was 0.3 µg/mL, the IC50 [20] was 0.232 µg/mL and the Kd [21] was 6870 pM. It also gave a koff [21] of 0.00255 s⁻¹, a kon [21] of 372000 M⁻¹ s⁻¹ and an EC50 [22] of 0.0931 µg/mL. For the same binder, the IC50 [23] was 0.88 µg/mL.

B6: KA-1836 H107D1210×H28G27V4-hIgG4M (bispecific antibody)
heavy 1: B4 heavy 1 with C351Y, S356C, S368W, A370L, V409Y
heavy 2: B4 heavy 2 with Y348C, C353S, W365S, L367A, Y406V
light: B4 light
notes: PD1×LAG3 bispecific; first heavy chain targets PD1 (hIgG4 Knob), second targets LAG3 (hIgG4 Hole); common light chain 1
For B6, the IC50 [12] was 0.302 µg/mL, the Kd [13] was 180 pM and the koff [13] was 0.000266 s⁻¹. It also gave a kon [13] of 1.48e+06 M⁻¹ s⁻¹, a Kd [14] of 6550 pM and a koff [14] of 0.00116 s⁻¹. The kon [14] was 178000 M⁻¹ s⁻¹, the IC50 [15] was 0.972 µg/mL and the EC50 [16] was 0.33 µg/mL. The EC50 [17] was 0.557 µg/mL.
